Earlier results as cited in PMC4225561.

Target: Myo4p 27-residue fragment (Saccharomyces cerevisiae) (UniProt P32492)
Assay: pull-down

UniProt P32492, sequence (P32492 528-554): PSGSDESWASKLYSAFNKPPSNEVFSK

Kd: 1000 nM
Substance: She4p (from UniProt P51534)
